{
  "source": "patent US20250011363A1",
  "about": "“OPTIMIZED SHORTENED PEPTIDE THAT BINDS TO ACETYLCHOLINE RECEPTOR, AND USE THEREOF” (SKINMED CO., LTD., priority 2021, published 2025)",
  "data": [
    {"molecular_target": "acetylcholine receptor", "test": "SPR, AchR on chip, peptide 10 uM", "units": {"Binding affinity (RU)": "RU"}, "values": [
      {"binder": "RGYCK", "note": "[5mer-38]", "Binding affinity (RU)": 53},
      {"binder": "RWILR", "note": "[5mer-338]", "Binding affinity (RU)": 61},
      {"binder": "RVYLR", "note": "[5mer-48]", "Binding affinity (RU)": 62},
      {"binder": "KSFSR", "note": "[5mer-343]", "Binding affinity (RU)": 60},
      {"binder": "RRISK", "note": "[5mer-33]", "Binding affinity (RU)": 59},
      {"binder": "RWQYK", "note": "[5mer-35]", "Binding affinity (RU)": 80},
      {"binder": "RVLQR", "note": "[5mer-333]", "Binding affinity (RU)": 67},
      {"binder": "KGVRR", "note": "[5mer-47]", "Binding affinity (RU)": 70},
      {"binder": "RVFQR", "note": "[5mer-45]", "Binding affinity (RU)": 86},
      {"binder": "RRLQK", "note": "[5mer-36]", "Binding affinity (RU)": 60},
      {"binder": "KRIRK", "note": "[5mer-34]", "Binding affinity (RU)": 82},
      {"binder": "RSRTR", "note": "[5mer-44]", "Binding affinity (RU)": 59},
      {"binder": "KQVSR", "note": "[5mer-39]", "Binding affinity (RU)": 67},
      {"binder": "KRICR", "note": "[5mer-347]", "Binding affinity (RU)": 78},
      {"binder": "RRLSR", "note": "[5mer-37]", "Binding affinity (RU)": 72},
      {"binder": "KSFYR", "note": "[5mer-43]", "Binding affinity (RU)": 53},
      {"binder": "KWVRK", "note": "[5mer-339]", "Binding affinity (RU)": 87},
      {"binder": "KGYRR", "note": "[5mer-340]", "Binding affinity (RU)": 51},
      {"binder": "KSLTR", "note": "[5mer-335]", "Binding affinity (RU)": 56},
      {"binder": "KRQCK", "note": "[5mer-46]", "Binding affinity (RU)": 76},
      {"binder": "KVYQR", "note": "[5mer-342]", "Binding affinity (RU)": 69},
      {"binder": "KGISK", "note": "[5mer-346]", "Binding affinity (RU)": 57},
      {"binder": "KSVSR", "note": "[5mer-336]", "Binding affinity (RU)": 83},
      {"binder": "KGRSR", "note": "[5mer-337]", "Binding affinity (RU)": 67},
      {"binder": "KVISK", "note": "[5mer-41]", "Binding affinity (RU)": 82},
      {"binder": "RQRLR", "note": "[5mer-42]", "Binding affinity (RU)": 83},
      {"binder": "KSVCR", "note": "[5mer-40]", "Binding affinity (RU)": 67},
      {"binder": "KRFYK", "note": "[5mer-334]", "Binding affinity (RU)": 64},
      {"binder": "RWYRR", "note": "[5mer-341]", "Binding affinity (RU)": 52},
      {"binder": "RQQRR", "note": "[5mer-345]", "Binding affinity (RU)": 86},
      {"binder": "KQFQR", "note": "[5mer-344]", "Binding affinity (RU)": 52}
    ]}
  ]
}
